Target: Vrl1-Envy (S. cerevisiae)
Assay: co-IP; yeast spheroplast lysates (0.1% Tween-20, 50 mM HEPES, 1 mM EDTA, 50 mM NaCl, pH 7.4); rabbit anti-GFP or anti-HA, Protein A Sepharose, 4 °C; western blot; Vrl1 over-expressed in some panels; vin1Δ strain for Vps5-3HA with Vrl1-Envy

B1: Vin1-3HA (natural protein)
chain: MENDKASHASPSIGVNEFVVQGEISIDDSERSVKSVSVSISDDEDSKTDVQDNMATPSTRSKFQTDLAIDNRLLEKDPKYKKLFTEKRRRRRPESCINLMTKGKGTGQKDNINDQIFSLRILPGSDLNSLKDSLWIIKISTQPDVEKTIARAFSDFYWLYHQLQNNHWGKTIPPPTRSNILVEKDEFAINHLFMIRNNEKYDPIFNFKPEYIISLQLMAMIKHIFNDKVLRLDSNFIDFISWDDDLPESLQIVVDDSTFTGDKILMTSSQFRELKEFHKQSKKVESITNSHASLIPVTELTEIYISPTKLFSRKDYQRLFQPQSTDNTFNNNDPLIQEWIPKSKTLFTSLSFGSSAPTYQEASTEIQACHDWVSISKEQWKQLLYHVLQYIVDEAVKVNSVINEFTECLKQISLDEVIRANSELFLKFSKLNESFLKKFKGASRQDILKLIILFDENVRFCESFESILNQRLKLGKILSIIEVDLDKKKNFLDKLSPGNNNSNNEDLKIRTAEDEYRIVLKRYNRVKQSWEKIMEDILNERKEFEKREAAEVNSCLKSIRDLNMDEKKHYLQLWQDFVPDEHISQ
percent recovery of Vin1 in the co-IP: 64%
